The data set deals with the molecule itself. Nature of the data set: cryo-EM structure; 15-20uM recombinant Pil1 with ~2mg/mL LUVs of three lipid mixtures (-PI(4,5)P2/+sterol, +PI(4,5)P2/-sterol, +PI(4,5)P2/+sterol), 30°C for 1hr, 20 mM HEPES pH 7.4, 150 mM KoAc, 2 mM MgAc; helical reconstruction.

B1: Recombinant Pil1 (natural protein, S. cerevisiae, UniProt P53252 1-339, looked up)
chain: MHRTYSLRNSRAPTASQLQNPPPPPSTTKGRFFGKGGLAYSFRRSAAGAFGPELSRKLSQLVKIEKNVLRSMELTANERRDAAKQLSIWGLENDDDVSDITDKLGVLIYEVSELDDQFIDRYDQYRLTLKSIRDIEGSVQPSRDRKDKITDKIAYLKYKDPQSPKIEVLEQELVRAEAESLVAEAQLSNITRSKLRAAFNYQFDSIIEHSEKIALIAGYGKALLELLDDSPVTPGETRPAYDGYEASKQIIIDAESALNEWTLDSAQVKPTLSFKQDYEDFEPEEGEEEEEEDGQGRWSEDEQEDGQIEEPEQEEEGAVEEHEQVGHQQSESLPQQTTA
notes: Pil1 of S. cerevisiae, PIL1 cloned into pCoofy6; the printed primers run from the ATG to the stop codon; The N-terminal position of Sumo3 is read from the primer LP1-Sumo3-Pil1-fwd; also called reconstituted Pil1; source: E. coli BL21(DE3)pLysS, purified (HisTrap, HiTrap Q, Sumo3 cleaved with SenP2, Superdex 200); not shown: Sumo3, N-terminal, cleaved
For B1, the binding result is reported as “binds”.

These data come from paper doi:10.1101/2023.08.25.554800, “CryoEM architecture of a native stretch-sensitive membrane microdomain” (bioRxiv, 2023).
